The data set concerns Escherichia coli TOP10. Nature of the data set: shrunken log2 fold change of peptide-encoding DNA abundance (4.5 h post-induction vs induction); higher = less antimicrobial activity (less host growth inhibition). The following applies: time post-induction: 4.5 h; library: site-saturation at positions 5, 18, 19, 20.
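Note: peptides expressed intracellularly from a pBAD plasmid library in pooled LB shake-flask culture, induced with 0.3% L-arabinose, DNA abundance read by NGS, three biological replicates, DESeq2 with apeglm shrinkage.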

Take RRIRNRPPRLPRPRPRPHHDPRP: the “shrunken log2 fold change” value was -1.01.

For RRIRDRPPRLPRPRPRPFVCPRP, the “shrunken log2 fold change” value is -0.213.

With RRIRQRPPRLPRPRPRPAFCPRP, the “shrunken log2 fold change” value turned out to be 0.585.

On to RRIRPRPPRLPRPRPRPECSPRP, for which the “shrunken log2 fold change” value is -0.0845.

Turning to RRIRWRPPRLPRPRPRPWCTPRP, the “shrunken log2 fold change” value was 0.118.

With RRIRVRPPRLPRPRPRPILWPRP, the “shrunken log2 fold change” value came out at 0.0127.

For the sequence RRIRKRPPRLPRPRPRPCYMPRP, the “shrunken log2 fold change” value was -0.195.

In the case of RRIRDRPPRLPRPRPRPDALPRP, the “shrunken log2 fold change” value stood at 0.306.

Consider RRIRGRPPRLPRPRPRPMHLPRP, for which the “shrunken log2 fold change” value was 0.186.

As for RRIRNRPPRLPRPRPRPEYLPRP, the “shrunken log2 fold change” value is 0.0183.

As to RRIRIRPPRLPRPRPRPHGPPRP, the “shrunken log2 fold change” value is 0.0659.

RRIRWRPPRLPRPRPRPPEMPRP: the “shrunken log2 fold change” value worked out at 0.812.

As for RRIRCRPPRLPRPRPRPPKMPRP, the “shrunken log2 fold change” value amounted to 0.222.

Take RRIRKRPPRLPRPRPRPVIFPRP: the “shrunken log2 fold change” value was found to be 0.265.

On to RRIRNRPPRLPRPRPRPRVYPRP, for which the “shrunken log2 fold change” value was -0.0128.

Regarding RRIRDRPPRLPRPRPRPSTPPRP, the “shrunken log2 fold change” value was -0.238.

Regarding RRIRWRPPRLPRPRPRPILRPRP, the “shrunken log2 fold change” value was -0.0505.

For the sequence RRIRIRPPRLPRPRPRPCPTPRP, the “shrunken log2 fold change” value was -0.0511.

For RRIRDRPPRLPRPRPRPCVHPRP, the “shrunken log2 fold change” value came out at 0.412.

On to RRIRRRPPRLPRPRPRPHAGPRP, for which the “shrunken log2 fold change” value is 0.425.

With RRIRARPPRLPRPRPRPQWTPRP, the “shrunken log2 fold change” value stood at 0.164.

On to RRIRTRPPRLPRPRPRPTCYPRP, for which the “shrunken log2 fold change” value is -0.0585.

For the sequence RRIRCRPPRLPRPRPRPRGKPRP, the “shrunken log2 fold change” value was 0.777.

For the sequence RRIRQRPPRLPRPRPRPIEKPRP, the “shrunken log2 fold change” value turned out to be 0.0125.

Take RRIRQRPPRLPRPRPRPQIKPRP: the “shrunken log2 fold change” value is -0.498.

For RRIRARPPRLPRPRPRPYTIPRP, the “shrunken log2 fold change” value is -0.236.

As for RRIRVRPPRLPRPRPRPIYNPRP, the “shrunken log2 fold change” value is -0.675.

For RRIRKRPPRLPRPRPRPDREPRP, the “shrunken log2 fold change” value worked out at 0.186.

For the sequence RRIRERPPRLPRPRPRPVMMPRP, the “shrunken log2 fold change” value was -0.144.

RRIRQRPPRLPRPRPRPVDSPRP: the “shrunken log2 fold change” value was found to be 0.0997.

For the sequence RRIRDRPPRLPRPRPRPGDAPRP, the “shrunken log2 fold change” value is 0.207.

RRIRYRPPRLPRPRPRPRSTPRP: the “shrunken log2 fold change” value was -0.156.

As for RRIRERPPRLPRPRPRPNLPPRP, the “shrunken log2 fold change” value was -0.0648.

Turning to RRIRARPPRLPRPRPRPLIVPRP, the “shrunken log2 fold change” value is 0.287.

As to RRIRTRPPRLPRPRPRPMWMPRP, the “shrunken log2 fold change” value is -0.177.

Consider RRIRYRPPRLPRPRPRPWTEPRP, for which the “shrunken log2 fold change” value is -0.0689.

Regarding RRIRSRPPRLPRPRPRPFPKPRP, the “shrunken log2 fold change” value is 0.107.

Take RRIRVRPPRLPRPRPRPKLCPRP: the “shrunken log2 fold change” value is -0.0766.

For RRIRIRPPRLPRPRPRPVLGPRP, the “shrunken log2 fold change” value was determined as 0.0875.

Turning to RRIRRRPPRLPRPRPRPSKLPRP, the “shrunken log2 fold change” value is -0.0224.

With RRIRSRPPRLPRPRPRPPVDPRP, the “shrunken log2 fold change” value is 0.327.

Take RRIRNRPPRLPRPRPRPGFFPRP: the “shrunken log2 fold change” value was 0.263.

For RRIRGRPPRLPRPRPRPKQNPRP, the “shrunken log2 fold change” value is 0.853.

In the case of RRIRQRPPRLPRPRPRPYCPPRP, the “shrunken log2 fold change” value is -0.422.

As for RRIRWRPPRLPRPRPRPISLPRP, the “shrunken log2 fold change” value is -0.161.

Turning to RRIRQRPPRLPRPRPRPGYVPRP, the “shrunken log2 fold change” value is -0.116.

With RRIRVRPPRLPRPRPRPRVCPRP, the “shrunken log2 fold change” value was 0.165.

For the sequence RRIRERPPRLPRPRPRPEIDPRP, the “shrunken log2 fold change” value is -0.00826.

Turning to RRIRCRPPRLPRPRPRPLMFPRP, the “shrunken log2 fold change” value is -0.433.

For the sequence RRIRTRPPRLPRPRPRPDFHPRP, the “shrunken log2 fold change” value is -0.336.

In the case of RRIRGRPPRLPRPRPRPSCPPRP, the “shrunken log2 fold change” value is -0.12.

Consider RRIRNRPPRLPRPRPRPRADPRP, for which the “shrunken log2 fold change” value stood at 0.327.

Regarding RRIRCRPPRLPRPRPRPKSQPRP, the “shrunken log2 fold change” value stood at 0.276.

As for RRIRMRPPRLPRPRPRPYLAPRP, the “shrunken log2 fold change” value was -0.0134.

On to RRIRGRPPRLPRPRPRPPTYPRP, for which the “shrunken log2 fold change” value turned out to be 0.206.

In the case of RRIRPRPPRLPRPRPRPWVHPRP, the “shrunken log2 fold change” value was -0.0708.

RRIRPRPPRLPRPRPRPTRHPRP: the “shrunken log2 fold change” value was determined as 0.43.

For the sequence RRIRQRPPRLPRPRPRPNIEPRP, the “shrunken log2 fold change” value is -0.0328.

Turning to RRIRWRPPRLPRPRPRPVPHPRP, the “shrunken log2 fold change” value was 0.271.

RRIRYRPPRLPRPRPRPDKSPRP: the “shrunken log2 fold change” value was -1.15.

For RRIRRRPPRLPRPRPRPNTCPRP, the “shrunken log2 fold change” value is 0.0105.

For the sequence RRIRKRPPRLPRPRPRPNCPPRP, the “shrunken log2 fold change” value is 0.0785.

On to RRIRGRPPRLPRPRPRPCITPRP, for which the “shrunken log2 fold change” value came to 0.158.

Regarding RRIRIRPPRLPRPRPRPVMGPRP, the “shrunken log2 fold change” value is -0.718.

For the sequence RRIRRRPPRLPRPRPRPRRLPRP, the “shrunken log2 fold change” value was 0.54.

With RRIRDRPPRLPRPRPRPSTYPRP, the “shrunken log2 fold change” value is -0.273.

RRIRKRPPRLPRPRPRPMDKPRP: the “shrunken log2 fold change” value was 0.166.

Consider RRIRQRPPRLPRPRPRPLEDPRP, for which the “shrunken log2 fold change” value was 0.0428.

Regarding RRIRYRPPRLPRPRPRPCNYPRP, the “shrunken log2 fold change” value is -0.87.

In the case of RRIRDRPPRLPRPRPRPFPKPRP, the “shrunken log2 fold change” value was -0.201.

RRIRLRPPRLPRPRPRPLVRPRP: the “shrunken log2 fold change” value is -0.105.

In the case of RRIRLRPPRLPRPRPRPDYVPRP, the “shrunken log2 fold change” value was -0.432.

As for RRIRFRPPRLPRPRPRPTMVPRP, the “shrunken log2 fold change” value is -0.129.

Regarding RRIRLRPPRLPRPRPRPPPAPRP, the “shrunken log2 fold change” value was determined as 1.52.

RRIRYRPPRLPRPRPRPAMPPRP: the “shrunken log2 fold change” value is -0.549.

Regarding RRIRKRPPRLPRPRPRPEQNPRP, the “shrunken log2 fold change” value was 0.949.

Consider RRIRERPPRLPRPRPRPMMWPRP, for which the “shrunken log2 fold change” value amounted to 0.3.

Consider RRIRSRPPRLPRPRPRPYQHPRP, for which the “shrunken log2 fold change” value was -0.934.

In the case of RRIRNRPPRLPRPRPRPITHPRP, the “shrunken log2 fold change” value is -0.644.

Consider RRIRHRPPRLPRPRPRPRQGPRP, for which the “shrunken log2 fold change” value amounted to 0.093.

Turning to RRIRYRPPRLPRPRPRPLYCPRP, the “shrunken log2 fold change” value was -0.975.

Take RRIRKRPPRLPRPRPRPKNVPRP: the “shrunken log2 fold change” value is 0.0773.

Turning to RRIRFRPPRLPRPRPRPSKRPRP, the “shrunken log2 fold change” value is -0.565.

With RRIRGRPPRLPRPRPRPYLYPRP, the “shrunken log2 fold change” value is -0.215.

Take RRIRDRPPRLPRPRPRPEMKPRP: the “shrunken log2 fold change” value was determined as 0.0494.

As to RRIRIRPPRLPRPRPRPNSMPRP, the “shrunken log2 fold change” value is -1.23.

Consider RRIRTRPPRLPRPRPRPPQHPRP, for which the “shrunken log2 fold change” value worked out at 0.22.

Regarding RRIRGRPPRLPRPRPRPENEPRP, the “shrunken log2 fold change” value was 0.686.

With RRIRARPPRLPRPRPRPYTDPRP, the “shrunken log2 fold change” value was -0.785.

In the case of RRIRHRPPRLPRPRPRPSTGPRP, the “shrunken log2 fold change” value was -0.24.

For RRIRGRPPRLPRPRPRPQEQPRP, the “shrunken log2 fold change” value was 0.458.

Consider RRIRMRPPRLPRPRPRPLPYPRP, for which the “shrunken log2 fold change” value was determined as 0.0635.

Take RRIRQRPPRLPRPRPRPVVLPRP: the “shrunken log2 fold change” value is -0.227.

RRIRDRPPRLPRPRPRPADPPRP: the “shrunken log2 fold change” value is -0.155.

RRIRYRPPRLPRPRPRPYWCPRP: the “shrunken log2 fold change” value is -0.0606.

For the sequence RRIRYRPPRLPRPRPRPGHRPRP, the “shrunken log2 fold change” value was determined as 0.0683.

Take RRIRLRPPRLPRPRPRPMGSPRP: the “shrunken log2 fold change” value is -0.000911.

For the sequence RRIRERPPRLPRPRPRPAICPRP, the “shrunken log2 fold change” value was -0.141.

As for RRIRGRPPRLPRPRPRPQIHPRP, the “shrunken log2 fold change” value came out at 0.32.

Take RRIRYRPPRLPRPRPRPGSDPRP: the “shrunken log2 fold change” value was -0.898.

Take RRIRPRPPRLPRPRPRPNYCPRP: the “shrunken log2 fold change” value is -0.239.

With RRIRCRPPRLPRPRPRPRSPPRP, the “shrunken log2 fold change” value was determined as 0.636.

For RRIRGRPPRLPRPRPRPVVIPRP, the “shrunken log2 fold change” value was -0.253.

Regarding RRIRARPPRLPRPRPRPEDHPRP, the “shrunken log2 fold change” value came to 0.392.

For the sequence RRIRPRPPRLPRPRPRPQKVPRP, the “shrunken log2 fold change” value was 0.0449.

Consider RRIRWRPPRLPRPRPRPFGHPRP, for which the “shrunken log2 fold change” value was -0.102.

Consider RRIRPRPPRLPRPRPRPSGQPRP, for which the “shrunken log2 fold change” value was -0.0898.

In the case of RRIRYRPPRLPRPRPRPTSTPRP, the “shrunken log2 fold change” value was -0.203.

On to RRIRERPPRLPRPRPRPYYIPRP, for which the “shrunken log2 fold change” value is -0.262.

For RRIRWRPPRLPRPRPRPRIIPRP, the “shrunken log2 fold change” value was determined as 0.136.

Regarding RRIRHRPPRLPRPRPRPQCFPRP, the “shrunken log2 fold change” value was -0.0477.

In the case of RRIRERPPRLPRPRPRPWGFPRP, the “shrunken log2 fold change” value amounted to 0.0221.

For RRIRGRPPRLPRPRPRPIWMPRP, the “shrunken log2 fold change” value worked out at 0.245.

Turning to RRIRTRPPRLPRPRPRPTGVPRP, the “shrunken log2 fold change” value is 0.077.

Turning to RRIRCRPPRLPRPRPRPVFFPRP, the “shrunken log2 fold change” value is -0.0521.

As to RRIRSRPPRLPRPRPRPDDDPRP, the “shrunken log2 fold change” value was -0.0062.

On to RRIRFRPPRLPRPRPRPFNEPRP, for which the “shrunken log2 fold change” value is -0.322.

For the sequence RRIRWRPPRLPRPRPRPNQRPRP, the “shrunken log2 fold change” value worked out at 0.181.

Consider RRIRERPPRLPRPRPRPHSYPRP, for which the “shrunken log2 fold change” value was -0.0459.

Take RRIRQRPPRLPRPRPRPHLNPRP: the “shrunken log2 fold change” value was -0.29.

For the sequence RRIRSRPPRLPRPRPRPQFFPRP, the “shrunken log2 fold change” value is -0.158.

With RRIRKRPPRLPRPRPRPEEDPRP, the “shrunken log2 fold change” value was determined as 0.0229.

For the sequence RRIRSRPPRLPRPRPRPFQIPRP, the “shrunken log2 fold change” value came to 0.0213.

On to RRIRFRPPRLPRPRPRPLEVPRP, for which the “shrunken log2 fold change” value came to 0.0238.

Take RRIRFRPPRLPRPRPRPFKDPRP: the “shrunken log2 fold change” value is -0.112.
